# Earlier results as cited in publication PMC3496038.
# Experiments:
# [1] = target: GluA1 NTD (Rattus norvegicus) (UniProt P19490); assay: analytical ultracentrifugation
# [2] = target: GluA3 NTD (Rattus norvegicus) (UniProt P19492); assay: analytical ultracentrifugation
Kd [1],Kd [2],Substance
100 nM,–,GluA1 NTD (from UniProt P19490)
–,1000 nM,GluA3 NTD (from UniProt P19492)
